The values below come from patent US20240247076A1 (SUZHOU ALPHAMAB, published 2024).

Test [1] deals with T1, hApple-chis (human, UniProt P03951 19-387).
T1 construct: range 1-387; also called happle-chis-biotin
Briefly: ELISA, purified tagged VHH on coated antigen. In general terms: In an ELISA, binding on a coated surface is turned into a signal by an enzyme label.
Protocol: (§1) Plates were coated with hApple and mApple proteins, respectively, at 0.5 μg/well and reacted overnight at 4° C. The plates were added with a gradient dilution series of the candidate single-domain antibodies with His and HA tags obtained in 1.4. and reacted at room temperature for 2 hours. After washing, a chicken anti-HA-tag secondary antibody (streptavidin-HRP, abcam) labeled with horseradish peroxidase was added and reacted at room temperature for 2 hours. After washing, a chromogenic solution was added, absorbance values at 450 nm and 650 nm wavelengths were read, and a final absorbance value was obtained by subtracting the absorbance value at 650 nm wavelength from the absorbance value at 450 nm wavelength. Data processing and mapping analysis were carried out by using software SotfMax Pro v5.4, and through four-parameter filling, binding curves of the candidate single-domain antibodies against FXI to hApple and mApple and EC₅₀ values were obtained so as to reflect the affinities of the candidate antibodies for hApple and mApple.

For test [2], the target named is T2, mApple-chis (mouse, UniProt Q91Y47 19-389).
T2 construct: range 1-389; also called mapple-chis-biotin
T2 sequence (looked up): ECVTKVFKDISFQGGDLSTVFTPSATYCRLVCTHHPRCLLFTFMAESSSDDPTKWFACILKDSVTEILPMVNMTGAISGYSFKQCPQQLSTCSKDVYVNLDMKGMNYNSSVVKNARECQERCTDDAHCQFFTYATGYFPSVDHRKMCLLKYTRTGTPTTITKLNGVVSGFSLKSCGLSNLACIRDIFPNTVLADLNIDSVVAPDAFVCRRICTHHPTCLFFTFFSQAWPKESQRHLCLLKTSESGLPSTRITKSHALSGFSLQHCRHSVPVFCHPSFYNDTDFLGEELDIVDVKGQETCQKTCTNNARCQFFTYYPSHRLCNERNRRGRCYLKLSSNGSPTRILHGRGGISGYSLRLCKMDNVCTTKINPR
The experiment in a line: ELISA, purified tagged VHH on coated antigen.
Protocol: as §1

Test [3] concerns the target T1, hApple-chis. The experiment in a line: ELISA, clone lysate on coated antigen.
Protocol: (§2) The FXI-binding positive phages obtained after panning were infected with blank E. coli and plated. Then 190 single colonies were randomly selected, named iFE 1 to iFE 190, and separately inoculated into 2TY-AG, and when the colonies were cultured to OD600 of about 0.8, IPTG was added to a final concentration of about 1 mM; after the expression was induced overnight at 25° C., single-domain antibodies were expressed in E. coli periplasm; the next day, the bacteria were harvested and lysed, and the supernatant was collected and used for ELISA assay. The plates were coated with hFXI, hApple and mApple, respectively, and then reacted overnight at 4° C., and the obtained sample lysis supernatant (the control group was E. coli lysis supernatant as a blank control) was added and reacted at room temperature for 2 hours. After washing, secondary antibody Goat anti-HA tag HRP (purchased from abcam) was added and reacted at room temperature for 2 hours. After washing, TMB chromogenic solution was added, absorbance values at 450 nm and 650 nm wavelengths were read, and a final absorbance value was obtained by subtracting the absorbance value at 650 nm wavelength from the absorbance value at 450 nm wavelength. When the OD value of the sample wells was more than 2 times larger than that of the control wells, the sample wells were determined as positive cloning wells.
In test [4] the target is T3, recombinant human factor XI (hFXI) (human, UniProt P03951 19-625).
T3 construct: also called hFXI-Chis; hFXI-CHis
Briefly: ELISA, clone lysate on coated antigen.
Protocol: as §2

Test [5] addresses T2, mApple-chis. The experiment in a line: ELISA, clone lysate on coated antigen.
Protocol: as §2

B1: iFE163 (VHH, not shown: small tags and cut ends)
VHH: QVQLQESGGDSVQAGGSLRLSCIASGFTFDDSDMGWYRQAPGHQCEFVSHITNDGTTYYADSVKGRFTISRDNAKNTVYLQMNSLKPEDAAVYYCAADAWGGGRSTCVNPIGYWGQGTQVTVSS
As usually defined, the EC50 is the concentration needed to bring the measured effect to its halfway point. Lower therefore signals greater potency. For B1, the concentration giving a half-maximal response (EC50) in the test with hApple-chis [1] came out at 0.0162 µg/mL; in the test with mApple-chis [2] it was 0.0129 µg/mL. Besides, the OD amounted to 1.09 OD with hApple-chis [3], 1.46 OD in test [4] and 1.07 OD in the test with mApple-chis [5].

B2: iFE49 (VHH, not shown: small tags and cut ends)
VHH: QVQLQESGGDSVQAGGSLRLSCAASGLISTGLISTRHCMSWFRQAPGKEREEVAVIGSDGSTRYGDFAKGRFTISKDTAKNTLYLQMNSLEPEDTAMYYCAAGPLVSTASRRRTRCPEGPRENIYWGQGTQVTVSS
notes: also called antibody strain 49
With B2, the EC50 with hApple-chis [1] is 1.16 µg/mL. Besides, the OD was 1.26 OD with hApple-chis [3], 0.998 OD in test [4] and 0.061 OD with mApple-chis [5].

B3: iFE35 (VHH, not shown: small tags and cut ends)
VHH: QVQLQESGGGSVQAGGSLGLSCTASGFTFDDSDMGWYRQAPGNECELVSTISSDGRGFYADSVKGRFTISQDRAKNTVYLHMNSLKPEDTAVYYCAAGWYGSFCSGLGQGTQVTVSS
notes: also called antibody strain 35
For the molecule B3, in the test with hApple-chis [1], the EC50 was 0.0241 µg/mL. Further, the figures for the OD (in the test with hApple-chis [3]; in test [4]; with mApple-chis [5]) were 1.61 OD, 1.8 OD and 0.043 OD, respectively.

B4: iFE148 (VHH, not shown: small tags and cut ends)
VHH: QVQLQESGGGSVQAGGSLRLSCVASGYTFNNNFVGWFRQAPGKEREGVAAIYSLGGSTYYADSVKGRFTISQDNAKNTVYLQMDSLKPEDTATYYCAGAITWVPPLSHRRYTYWGQGTQVTVSS
As for B4, the EC50 with hApple-chis [1] was found to be 0.263 µg/mL; in the test with mApple-chis [2], 0.255 µg/mL. In addition, the values for the OD (in the test with hApple-chis [3]; in test [4]; with mApple-chis [5]) were 0.998 OD, 0.714 OD and 0.681 OD, respectively.

B5: iFE50 (VHH, not shown: small tags and cut ends)
VHH: QVQLQESGGGLVQPGGSLRLSCAASGFTFSLYDMSWVRQAPGQGLEWVSAITNPGGSTYYADSVKDRFTISRDNAKNTLYLQMNSLKTEDTAVYYCAIGRRATFQREKDWGQGTQVTVSS
notes: also called antibody strain 50
Take B5: the OD with hApple-chis [3] was determined as 1.05 OD; in test [4] it was 0.439 OD; with mApple-chis [5] it was 0.042 OD.

B6: iFE166 (VHH, not shown: small tags and cut ends)
VHH: QVQLQESGGGSVQAGGSLRLSCVASGFTGCRNIMSWYRQAPGKDREFVSAIDSDGVDYADSVKGRFSISQHNDKKTMYLQMTSLKLEDTAMYYCRRVDFGTTSQCRGNYWGQGTQVTVSS
Take B6: the figures for the EC50 with hApple-chis [1] and with mApple-chis [2] were 0.0498 µg/mL and 0.0468 µg/mL, respectively. Also, the OD with hApple-chis [3] stood at 1.69 OD; in test [4] it was 1.24 OD; with mApple-chis [5], 1.83 OD.

B7: iFE97 (VHH, not shown: small tags and cut ends)
VHH: QVQLQESGGGSVQAGGSLRLSCTASEFTFDDSDMAWYRQAPGNECELVSTITSDGGTYYADSVKGRFTISQDNAKNTMYLQMNNLKPEDTAVYYCAADQWGSAEGDCTSSYPGGYWGQGTQVTVSS
notes: also called antibody strain 97
As to B7, the EC50 with hApple-chis [1] worked out at 0.735 µg/mL; in the test with mApple-chis [2] it was 1.23 µg/mL. Also, in the test with mApple-chis [2], the “OD at 20 µg/mL” value was 1.4 OD. In addition, the OD in the test with hApple-chis [3] is 0.994 OD; in test [4], 1.3 OD; with mApple-chis [5] it was 0.774 OD.

B8: iFE96 (VHH, not shown: small tags and cut ends)
VHH: QVQLQESGGGSVQAGGSLRLSCAASGFTASSNFMGWFRQAPGKEREGVAAIYTGGASTFYADSVKGRFTISQDNAKNTVYLEMDTLKPEDTAMYYCAAAPRWIAPLRADRYEYWGQGTQVTVSS
notes: also called antibody strain 96
B8 returned a half-maximal effective concentration (EC50) with hApple-chis [1] of 1.25 µg/mL. For the same molecule, the “OD at 20 µg/mL” value with hApple-chis [1] was 1.3 OD; with mApple-chis [2], 0.8 OD. The OD in the test with hApple-chis [3] was found to be 0.58 OD; in test [4] it was 0.407 OD; with mApple-chis [5], 0.334 OD.

B9: iFE168 (VHH, not shown: small tags and cut ends)
VHH: QVQLQESGGGSVQAGGSLRLSCAASGYTFSNNFVGWFRQAPGKKREGVATIYTLGSSTYYADSVKGRFTISQDNAKNTLYLEMNSLKPEDTAMYYCAAARGWVSPLDPARFVYWGQGTQVTVSS
notes: also called antibody strain 168
As for B9, the EC50 in the test with hApple-chis [1] came out at 0.0205 µg/mL; with mApple-chis [2] it was 0.0584 µg/mL. The OD with hApple-chis [3] turned out to be 0.974 OD; in test [4], 0.619 OD; in the test with mApple-chis [5], 0.843 OD.

B10: iFE56 (VHH, not shown: small tags and cut ends)
VHH: QVQLQESGGGSVQAGGSLRLSCAASGHTYSSNYCMAWFRQAPGKEREGVAAIYSDGSTSYADSVKGRFTISKDNAKNTLYLQIDSLKPEDTSLYYCAATAYEGSWTGKQPLCLLYEYTYWGQGTQVTVSS
notes: also called antibody strain 56
In the test with hApple-chis [1], B10 showed an EC50 of 0.323 µg/mL. The OD with hApple-chis [3] came out at 1.46 OD; in test [4], 1.42 OD; with mApple-chis [5], 0.04 OD.

B11: iFE13 (VHH, not shown: small tags and cut ends)
VHH: QVQLQESGGGSVQAGGSLRLSCAGDGYTYSMGAMAWFRQAPGKEREGVALIATSSGFISYTDSVKGRFTISQDDAKIYLQMNSLKPEDTAMYYCAAGTQFSWSPGSYNYWGQGTQVTVSS
notes: also called antibody strain 13
In the test with hApple-chis [1], B11 gave an EC50 of 0.0195 µg/mL. Moreover, the OD with hApple-chis [3] amounted to 1.98 OD; in test [4], 1.94 OD; with mApple-chis [5], 0.056 OD.

B12: iFE5 (VHH, not shown: small tags and cut ends)
VHH: QVQLQESGGGSVQAGGSLRLSCAASGYTYSFNSMGWFRQAPGKEREGVAVIYLGSTHYADSVKGRFTISQDNAKNMVYLQMNSLKPEDTAMYYCAADLLEYDGTWFGSTYNYWGQGTQVTVSS
notes: also called antibody strain 5
As for B12, in the test with hApple-chis [1], the 50% effective concentration (EC50) came out at 0.0329 µg/mL. The OD was determined as 1.62 OD with hApple-chis [3], 1.33 OD in test [4] and 0.069 OD in the test with mApple-chis [5].

B13: iFE43 (VHH, not shown: small tags and cut ends)
VHH: QVQLQESGGGSVQAGGSLRLSCAASGLRFSIYDWSWVRQAPGKGLEWVSAINSGGGVTSYADSVKGRVTISRDNAKNTLYLQMHSLKTEDTAVYYCATGDGGSWYRDGDWGQGTQVTVSS
notes: also called antibody strain 43
For the molecule B13, the values for the OD (with hApple-chis [3]; in test [4]; in the test with mApple-chis [5]) were 1.38 OD, 1.06 OD and 0.04 OD, respectively.
